These are literature values, as cited in patent US10905736B2, “Ezetimibe-associated ApoA-I mimetic peptides showing enhanced synergism” (The Regents of the University of California, priority 2016, dated 2021).

The conditions of the data set: two hours after LDLR-/- mice finished eating WD containing Tg6F; cited from earlier work.

In the case of DWLKAFYDKFFEKFKEFF [6F peptide], the “presence of intact peptide in small intestine and plasma” value is on record as “found in the small intestine but not in the plasma”.
